Assay results: patent US20060153807A1, “Vector-mediated gene regulation in midbrain dopamine neurons” (priority 2005, published 2006)

What was measured:
insulin = assay: aggregation suppression of reduced insulin (DTT-induced B chain aggregation); type: biochemical; details: 20 mM DTT
Experimental: (§1) FIG. 22 illustrates that DJ-1 is a redox-dependent molecular chaperone. (A) Aggregation of CS was monitored at 43° C. after addition of either 0.8 μM CS alone (black), or along with 8.0 μM RNase A (purple), 0.5 μM DJ-1 (aqua), 2.0 μM DJ-1 (blue), 4.0 μM DJ-1 (red), or 2.0 μM Hsp27 (green). (B) Aggregation of 0.8 μM CS after 30 min at 4° C. […] (C) Aggregation of insulin (26 μM) B chains induced by 20 mM DTT at 25° C. Insulin alone (black) or in the presence of 4.0 μM RNase A (purple), 0.5 μM DJ-1 (aqua), 2.0 μM DJ-1 (blue), 4.0 μM DJ-1 (red), or 2.0 μM Hsp27 (green). (D) CS thermal aggregation (unfilled bar) is suppressed by 4 μM DJ-1 (black bar), but chaperone activity is abrogated upon incubation of DJ-1 with 0.5 mM DTT for 10 min at 4° C. (gray bar). Further treatment of DTT-reduced DJ-1 with 10 mM H2O2 for 10 min at 4° C. leads to reactivation of CS suppression (hatched bar).
(§2) Aggregation assays. CS aggregation was performed in 40 mM HEPES (pH 7.8), 20 mM potassium hydroxinde, 50 mM potassium chloride, and 10 mM ammonium sulfate, and monitored in a thermostat-controlled fluorescence spectrophotometer with excitation and emission wavelengths at 500 nm and slit widths at 2.5 nm. Insulin aggregation was performed as described (Giasson et al. 2000). CS, insulin, RNase A, and GST were obtained from Sigma; human Hsp27 was obtained from Stressgen.

citrate synthase (CS) = target: T1, citrate synthase (CS) (Sus scrofa, UniProt P00889); assay: suppression of heat-induced aggregation of citrate synthase (chaperone assay); type: biochemical; details: for redox regulation: chaperone activity in the CS aggregation assay after DTT: preincubation with 0.5 mM DTT for 10 min at 4° C.; for chaperone activity: suppression of heat-induced CS aggregation: 0.8 μM CS, 43° C., DJ-1 0.5-4.0 μM
T1 construct: purchased Sigma
T1 sequence (P00889 28-464): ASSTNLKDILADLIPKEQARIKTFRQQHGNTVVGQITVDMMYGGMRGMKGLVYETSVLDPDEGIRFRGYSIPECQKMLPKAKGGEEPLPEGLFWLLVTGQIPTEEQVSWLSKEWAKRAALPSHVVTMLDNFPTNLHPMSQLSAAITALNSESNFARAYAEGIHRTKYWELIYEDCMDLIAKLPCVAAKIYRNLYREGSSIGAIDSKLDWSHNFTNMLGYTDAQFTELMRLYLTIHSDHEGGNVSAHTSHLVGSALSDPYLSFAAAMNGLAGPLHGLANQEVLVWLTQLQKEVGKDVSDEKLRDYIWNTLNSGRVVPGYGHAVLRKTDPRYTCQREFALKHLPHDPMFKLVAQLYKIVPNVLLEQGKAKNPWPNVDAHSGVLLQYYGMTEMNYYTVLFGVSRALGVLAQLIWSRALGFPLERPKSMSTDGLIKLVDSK
Experimental: as §1
To test the redox regulation of DJ-1, the inventors assayed chaperone activity in the CS aggregation assay in the presence or absence of the reducing agent DTT. […] (FIG. 22D). […] To further test whether redox regulation might govern DJ-1 chaperone activity, reactivation studies using reduced DJ-1 were performed. DTT-reduced DJ-1 was incubated with H2O2 (10 mM in aggregation buffer for 10 min at 4° C. followed by dialysis against aggregation buffer for 2 h), and subsequently chaperone activity was measured in the CS thermal aggregation assay. […] This was not an indirect effect of residual H2O2 on CS aggregation, as H2O2 treatment of CS increased aggregation (unpublished data).
as §2

αSyn = αSyn (Homo sapiens, UniProt P37840); assay: αSyn protofibril formation assay in vitro; type: biochemical; details: 200 μM αSyn, 100 μM test protein (molar ratio 1:2), 2 h at 55° C.
Experimental: The analysis of DJ-1 chaperone function to a candidate DJ-1 substrate, αSyn (FIG. 23) was extended.
αSyn protofibril and fibril formation assays were performed essentially as described (Uversky et al.). Briefly, protofibrils were formed by incubation of 200 μM WT synuclein with 100 μM DJ-1 or control chaperone protein in PBS for 2 h at 55° C. Samples were mixed with SDS loading buffer and analyzed by SDS-PAGE and Western blotting using αSyn LB509 antibody (Zymed). Quantitation of high molecular weight αSyn was performed using NIH Image J. Integrated pixel intensity of high molecular weight synuclein for each sample was normalized to monomeric synuclein intensity.

[1] = test system: glutathione S-transferase (GST); details: GST 0.4 μM, test protein 2 μM
Experimental: DJ-1 chaperone activity was quantified in the suppression of heat-induced aggregation of citrate synthase (CS) and glutathione S-transferase (GST), two well-characterized protein chaperone assays. These proteins lose their native conformation and undergo aggregation during incubation at 43° C. and 60° C., respectively.

DJ-1-deficient ES cells = assay: rescue of DJ-1-deficient ES cells from H2O2 toxicity, MTT assay; details: transient transfection of expression plasmid, 10 μM H2O2 for 15 h, vs vector alone
[2] = test system: Undifferentiated ES cells; assay: rescue from Q333P mutant NFL toxicity in undifferentiated ES cells, MTT reduction assay; type: cell-based; details: 72 h after transfection
Experimental: FIG. 30 depicts the additional studies of DJ-1 mutations. […] Cells from FIG. 4M were quantified via ToPro3 nuclear staining and are expressed as number of cells per field from ten independent fields in each of three wells. […] GFP positive transfected cells from FIG. 5A-5L were quantified and are expressed as number of transfected cells per field from ten independent fields in each of three wells. […] After 72 h, cells were assayed by MTT reduction assay (which detects reduction of 3-(4,5-dimethylthiazol-2-yl)-2,5-diphenyltetrazolium bromide by metabolic enzymes) (Martinat et al. 2004). […] Undifferentiated ES cells were transfected with Q333P mutant NFL along with WT human DJ-1, C53A mutant DJ-1, or vector control. After 72 h, cells were assayed by MTT reduction assay (Martinat et al. 2004). […] Cells were differentiated for 72 h and lysed to produce Triton X-100-soluble and -insoluble fractions. Lysates were exposed to Western blotting with an antibody against transfected human NFL.

| chaperone activity: suppression of heat-induced CS aggregation (citrate synthase (CS)) | Molecule | chaperone activity: suppression of reduced insulin aggregation (insulin) | redox regulation: chaperone activity in the CS aggregation assay after DTT (citrate synthase (CS)) | inhibition of αSyn protofibril formation (αSyn) | suppression of GST thermal aggregation [1] | viability of H2O2-treated DJ-1 knockout cells after transfection (DJ-1-deficient ES cells) | rescue from Q333P mutant NFL toxicity [2] |
| --- | --- | --- | --- | --- | --- | --- | --- |
|  | Hsp27: well-described small cytoplasmic chaperone, human Hsp27, obtained from Stressgen; positive control [reference compound] | effectively inhibited the aggregation of insulin | did not modify suppression of CS aggregation | failed to inhibit the generation of αSyn protofibrils | suppressed |  |  |
| does not alter the basal activity | C106A: DJ-1 cysteine-to-alanine mutant at cysteine 106 (protein, UniProt Q99497 1-189, looked up, variant C106A) MASKRALVILAKGAEEMETVIPVDVMRRAGIKVTVAGLAGKDPVQCSRDVVICPDASLEDAKKEGPYDVVVLPGGNLGAQNLSESAAVKEILKEQENRKGLIAAIAAGPTALLAHEIGFGSKVTTHPLAKDKMMNGGHYTYSENRVEKDGLILTSRGPGTSFEFALAIVEALNGKEVAAQVKAPLVLKD |  | unaffected |  |  | robustly rescued DJ-1 knockout cells from H2O2 toxicity |  |
| completely abrogates chaperone activity | C53A: DJ-1 cysteine-to-alanine mutant at cysteine 53 (protein, UniProt Q99497 1-189, looked up, variant C53A) MASKRALVILAKGAEEMETVIPVDVMRRAGIKVTVAGLAGKDPVQCSRDVVIAPDASLEDAKKEGPYDVVVLPGGNLGAQNLSESAAVKEILKEQENRKGLIAAICAGPTALLAHEIGFGSKVTTHPLAKDKMMNGGHYTYSENRVEKDGLILTSRGPGTSFEFALAIVEALNGKEVAAQVKAPLVLKD |  |  |  |  | failed to protect from H2O2 toxicity | unable to rescue cells from Q333P mutant NFL toxicity |

| Molecule | chaperone activity: suppression of heat-induced CS aggregation (citrate synthase (CS)) | chaperone activity: suppression of reduced insulin aggregation (insulin) | redox regulation: chaperone activity in the CS aggregation assay after DTT (citrate synthase (CS)) | inhibition of αSyn protofibril formation (αSyn) | suppression of GST thermal aggregation [1] | viability of H2O2-treated DJ-1 knockout cells after transfection (DJ-1-deficient ES cells) | rescue from Q333P mutant NFL toxicity [2] |
| --- | --- | --- | --- | --- | --- | --- | --- |
| RNase A: negative control protein, obtained from Sigma (protein, UniProt P61823 27-150, looked up) Ribonuclease pancreatic: KETAAAKFERQHMDSSTSAASSSNYCNQMMKSRNLTKDRCKPVNTFVHESLADVQAVCSQKNVACKNGQTNCYQSYSTMSITDCRETGSSKYPNCAYKTTQANKHIIVACEGNPYVPVHFDASV | failed to demonstrate chaperone activity | neither DJ-1 nor the negative control protein RNase A displayed chaperone activity |  |  |  |  |  |
